Consider four molecules from patent US20140302035A1 (MERRIMACK PHARMACEUTICALS, published 2014).

Test [1] has as its target T1, Human EpCAM-Fc-his tagged (human).
T1 construct: also called Recombinant polyhistidine-tagged EpCAM-Fc; recombinant EpCAM
Put plainly: BLI (ForteBio Octet), antibody loaded on Protein A tips, recombinant polyhistidine-tagged EpCAM-Fc in solution, 1:1 model. As for the experimental part:
For Octet analysis, all reagents and samples are brought to room temperature. Protein A sensor tips (ForteBio, #18-5010) are hydrated for 10 minutes in 1×PBS. Assay steps include: 1-2 minutes of equilibration in 1×PBS, 4 minutes of antibody loading (concentration of 50 μg/ml in 1×PBS), 1-2 minutes of baseline stabilization, 4 minutes of antibody:antigen association, and 4 minutes of antibody:antigen dissociation. 1×PBS is used as the matrix throughout. Data are analyzed with Octet Data Analysis software, processed, and fit to a 1:1 binding model to determine kinetic parameters (Kd, kₒₙ and kdiss).
Table A-2 describes approximate EpCAM binding affinity and dissociation rate as determined for Ab#1, Ab#2, Ab#3, Ab#4, Ab#5, Ab#6, Ab#7, Ab#8, Ab#9, Ab#10, Ab#11, Ab#12, and Ab#13.

Test [2] addresses T2, cMet-his (Homo sapiens (Human), UniProt P08581 25-933).
T2 construct: also called his tagged cMET; Recombinant polyhistidine-tagged c-Met
Put plainly: BLI (ForteBio Octet), antibody loaded on Protein A tips, his tagged cMET in solution, 1:1 model. As for the experimental part: Protocol: All reagents are equilibrated and samples are brought to room temperature. Protein A sensor tips (Fortebio, #18-5010) are hydrated for 10 min in 1×PBS. Kinetic assays are run using the Octet software and procedure per manufacturer's instruction. Assay steps typically include: 1-2 min of equilibration in 1×PBS, 4 min of antibody loading (conc: 50 μg/mL in 1×PBS), 1-2 min of baseline stabilization, 4 min of antibody:antigen association, and 4 min of antibody:antigen dissociation. 1×PBS is used as the matrix throughout. Data are analyzed with Octet Data Analysis software, processed, and fit to the curve using 1:1 binding model to determine kinetic parameters (Kₐ, Kₒₙ and Koff)

T1 sequence (chain, as listed by the source): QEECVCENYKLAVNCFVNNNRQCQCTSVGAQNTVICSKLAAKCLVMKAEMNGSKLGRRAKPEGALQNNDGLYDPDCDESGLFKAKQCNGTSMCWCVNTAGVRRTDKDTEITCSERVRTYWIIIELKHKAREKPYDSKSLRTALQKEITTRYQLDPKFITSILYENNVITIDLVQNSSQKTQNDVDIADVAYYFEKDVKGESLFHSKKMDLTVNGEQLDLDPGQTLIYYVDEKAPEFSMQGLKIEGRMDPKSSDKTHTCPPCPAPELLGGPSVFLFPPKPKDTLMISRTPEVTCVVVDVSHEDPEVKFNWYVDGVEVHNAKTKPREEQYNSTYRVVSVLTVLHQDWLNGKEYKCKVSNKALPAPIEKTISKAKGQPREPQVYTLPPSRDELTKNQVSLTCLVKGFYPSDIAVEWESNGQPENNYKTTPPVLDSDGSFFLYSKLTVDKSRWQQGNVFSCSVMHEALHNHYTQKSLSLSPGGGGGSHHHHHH

B1: Ab#12 (bispecific antibody)
heavy: QLQLQESGPGLVKPSETLSLTCTVSGGSISSSVYYWSWIRQPPGKGLEWIGVIYPSGNTYYSPSLKSRVTISVDTSKNQFSLKLSSVTAADTAVYYCARTIYDLFDIWGQGTMVTVSSASTKGPSVFPLAPSSKSTSGGTAALGCLVKDYFPEPVTVSWNSGALTSGVHTFPAVLQSSGLYSLSSVVTVPSSSLGTQTYICNVNHKPSNTKVDKKVEPKSCDKTHTCPSCPAPEFLGGPSVFLFPPKPKDTLMISRTPEVTCVVVDVSQEDPEVQFNWYVDGVEVHNAKTKPREEQFNSKYRVVSVLTVLHQDWLNGKEYKCKVSNKGLPSSIEKTISKAKGQPREPQVYTLPPSREEMTKNQVSLSCAVKGFYPSDIAVEWESNGQPENNYKTTPPVLDSDGSFFLVSKLTVDKSRWQQGNVFSCSVMHEALHNHYTQKSLSLSKSCDKTGGGGSGGGGSGGGGSGGGGSGGGGSGGGGSGGGGSGGGGSCPSCPAPEFLGGPSVFLFPPKPKDTLMISRTPEVTCVVVDVSQEDPEVQFNWYVDGVEVHNAKTKPREEQFNSDYRVVSVLTVLHQDWLNGKEYKCKVSNKGLPSSIEKTISKAKGQPREPQVYTLPPSREEMTKNQVSLWCLVKGFYPSDIAVEWESNGQPENNYKTTPPVLDSDGSFFLYSKLTVDKSRWQQGNVFSCSVMHEALHNHYTQKSLSLSGECGGGGSGGGGSDIVMTQSPSSLSASVGDKATITCRSTKSLLHSDGITYLYWYLQKPGKAPKLLIYQLSNLASGVPDRFSSSGSGTEFTLTISSVQPEDEGTYYCAQNLEIPRTFGQGTKLEIKRTGGGGSGGGGSGGGGSGGGGSGQVQLQQSGGGLVKPGESVKISCAASGYTFTNYGMNWVKQAPGKGLKWMGWINTYTGESTYADDFKGRFTFSLETSASAAYLQINSLRPEDTAVYFCARFAIKGDYWGQGTTVTVSS
light: DIQMTQSPSSVSASVGDRVTITCRASQGISSWLAWYQQKPGKAPKLLIYAASSLQSGVPSRFSGSGSGTDFTLTISSLQPEDFATYYCLQANSFPPTFGGGTKVEIKRTVAAPSVFIFPPSDEQLKSGTASVVCLLNNFYPREAKVQWKVDNALQSGNSQESVTEQDSKDSTYSLSSTLTLSKADYEKHKVYACEVTHQGLSSPVTKSFNRGEC
notes: Anti-c-Met Fab / tandem Fc / anti-EpCAM scFv TFcBA; also called Antibody #12
Turning to B1, in test [1], the equilibrium dissociation constant (Kd) amounted to 24.5 nM and the koff came out at 0.00166 s⁻¹.

B2: Onartuzumab-23E (antibody)
heavy: EVQLVESGGGLVQPGGSLRLSCAASGYTFTSYWLHWVRQAPGKGLEWVGMIDPSNSDTRFNPNFKDRFTISADTSKNTAYLQMNSLRAEDTAVYYCATYRSYVTPLDYWGQGTLVTVSSASTKGPSVFPLAPSSKSTSGGTAALGCLVKDYFPEPVTVSWNSGALTSGVHTFPAVLQSSGLYSLSSVVTVPSSSLGTQTYICNVNHKPSNTKVDKKVEPKSCDKTHTCPPCPAPELLGGPSVFLFPPKPKDTLMISRTPEVTCVVVDVSHEDPEVKFNWYVDGVEVHNAKTKPREEQYQSTYRVVSVLTVLHQDWLNGKEYKCKVSNKALPAPIEKTISKAKGQPREPQVYTLPPSREEMTKNQVSLSCAVKGFYPSDIAVEWESNGQPENNYKTTPPVLDSDGSFFLVSKLTVDKSRWQQGNVFSCSVMHEALHNHYTQKSLSLSKSCDKTGGGGSGGGGSGGGGSGGGGSGGGGSGGGGSGGGGSGGGGSCPPCPAPELLGGPSVFLFPPKPKDTLMISRTPEVTCVVVDVSHEDPEVKFNWYVDGVEVHNAKTKPREEQYQSTYRVVSVLTVLHQDWLNGKEYKCKVSNKALPAPIEKTISKAKGQPREPQVYTLPPSREEMTKNQVSLWCLVKGFYPSDIAVEWESNGQPENNYKTTPPVLDSDGSFFLYSKLTVDKSRWQQGNVFSCSVMHEALHNHYTQKSLSLSGEC
light: DIQMTQSPSSLSASVGDRVTITCKSSQSLLYTSSQKNYLAWYQQKPGKAPKLLIYWASTRESGVPSRFSGSGSGTDFTLTISSLQPEDFATYYCQQYYAYPWTFGQGTKVEIKRTVAAPSVFIFPPSDEQLKSGTASVVCLLNNFYPREAKVQWKVDNALQSGNSQESVTEQDSKDSTYSLSSTLTLSKADYEKHKVYACEVTHQGLSSPVTKSFNRGEC
notes: Monovalent tandem Fc antibody: onartuzumab anti-c-Met Fab on IgG1 TFc 23E
For the molecule B2, binding in test [2] was put at a Kd of 1.3 nM.

B3: Onartuzumab-23 (antibody)
heavy: EVQLVESGGGLVQPGGSLRLSCAASGYTFTSYWLHWVRQAPGKGLEWVGMIDPSNSDTRFNPNFKDRFTISADTSKNTAYLQMNSLRAEDTAVYYCATYRSYVTPLDYWGQGTLVTVSSASTKGPSVFPLAPSSKSTSGGTAALGCLVKDYFPEPVTVSWNSGALTSGVHTFPAVLQSSGLYSLSSVVTVPSSSLGTQTYICNVNHKPSNTKVDKKVEPKSCDKTHTCPPCPAPELLGGPSVFLFPPKPKDTLMISRTPEVTCVVVDVSHEDPEVKFNWYVDGVEVHNAKTKPREEQYQSTYRVVSVLTVLHQDWLNGKEYKCKVSNKALPAPIEKTISKAKGQPREPQVYTLPPSREEMTKNQVSLSCAVKGFYPSDIAVEWESNGQPENNYKTTPPVLDSDGSFFLVSKLTVDKSRWQQGNVFSCSVMHEALHNHYTQKSLSLSPGKGGGGSGGGGSGGGGSGGGGSGGGGSGGGGSGGGGSGGGGSCPPCPAPELLGGPSVFLFPPKPKDTLMISRTPEVTCVVVDVSHEDPEVKFNWYVDGVEVHNAKTKPREEQYQSTYRVVSVLTVLHQDWLNGKEYKCKVSNKALPAPIEKTISKAKGQPREPQVYTLPPSREEMTKNQVSLWCLVKGFYPSDIAVEWESNGQPENNYKTTPPVLDSDGSFFLYSKLTVDKSRWQQGNVFSCSVMHEALHNHYTQKSLSLSPGK
light: DIQMTQSPSSLSASVGDRVTITCKSSQSLLYTSSQKNYLAWYQQKPGKAPKLLIYWASTRESGVPSRFSGSGSGTDFTLTISSLQPEDFATYYCQQYYAYPWTFGQGTKVEIKRTVAAPSVFIFPPSDEQLKSGTASVVCLLNNFYPREAKVQWKVDNALQSGNSQESVTEQDSKDSTYSLSSTLTLSKADYEKHKVYACEVTHQGLSSPVTKSFNRGEC
notes: Monovalent tandem Fc antibody: onartuzumab anti-c-Met Fab on IgG1 TFc 23
B3 gave a Kd in test [2] of 1.24 nM.

B4: Onartuzumab-39EGY4 (antibody)
heavy: EVQLVESGGGLVQPGGSLRLSCAASGYTFTSYWLHWVRQAPGKGLEWVGMIDPSNSDTRFNPNFKDRFTISADTSKNTAYLQMNSLRAEDTAVYYCATYRSYVTPLDYWGQGTLVTVSSASTKGPSVFPLAPSSKSTSGGTAALGCLVKDYFPEPVTVSWNSGALTSGVHTFPAVLQSSGLYSLSSVVTVPSSSLGTQTYICNVNHKPSNTKVDKKVEPKSCDKTHTCPSCPAPEFLGGPSVFLFPPKPKDTLMISRTPEVTCVVVDVSQEDPEVQFNWYVDGVEVHNAKTKPREEQFNSKYRVVSVLTVLHQDWLNGKEYKCKVSNKGLPSSIEKTISKAKGQPREPQVYTLPPSREEMTKNQVSLSCAVKGFYPSDIAVEWESNGQPENNYKTTPPVLDSDGSFFLVSKLTVDKSRWQQGNVFSCSVMHEALHNHYTQKSLSLSKSCDKTGGGGSGGGGSGGGGSGGGGSGGGGSGGGGSGGGGSGGGGSCPSCPAPEFLGGPSVFLFPPKPKDTLMISRTPEVTCVVVDVSQEDPEVQFNWYVDGVEVHNAKTKPREEQFNSDYRVVSVLTVLHQDWLNGKEYKCKVSNKGLPSSIEKTISKAKGQPREPQVYTLPPSREEMTKNQVSLWCLVKGFYPSDIAVEWESNGQPENNYKTTPPVLDSDGSFFLYSKLTVDKSRWQQGNVFSCSVMHEALHNHYTQKSLSLSGEC
light: DIQMTQSPSSLSASVGDRVTITCKSSQSLLYTSSQKNYLAWYQQKPGKAPKLLIYWASTRESGVPSRFSGSGSGTDFTLTISSLQPEDFATYYCQQYYAYPWTFGQGTKVEIKRTVAAPSVFIFPPSDEQLKSGTASVVCLLNNFYPREAKVQWKVDNALQSGNSQESVTEQDSKDSTYSLSSTLTLSKADYEKHKVYACEVTHQGLSSPVTKSFNRGEC
notes: Monovalent tandem Fc antibody: onartuzumab anti-c-Met Fab on IgG1/IgG4 hybrid TFc 39E glycoform 4
The molecule B4 yielded a Kd in test [2] of 1.25 nM.
